Source: patent US20230235027A1 (US Dept. of Health and Human Services, published 2023)
“And” between values parts separate entries of the source, which are not always exact repeats. Identical values can stand only once.

What was measured:
[1] = target: T1, SARS-CoV-2 RBD mutant W436R (SARS-CoV-2, UniProt P0DTC2 319-541); test: competition ELISA, RBD variant coated, competitor biotinylated ACE2
T1 construct: bought variant RBD; also called #SPD-552H7, ACRO Biosystems

[2] = target: T2, SARS-CoV-2 RBD mutant N354D/D364Y (SARS-CoV-2, UniProt P0DTC2 319-541); test: as above
T2 construct: bought variant RBD; also called SPD-S52H3, ACRO Biosystems

[3] = target: T3, SARS-CoV-2 RBD mutant V367F (SARS-CoV-2, UniProt P0DTC2 319-541); test: as above
T3 construct: bought variant RBD; also called SPD-S52H4, ACRO Biosystems

[4] = target: T1, SARS-CoV-2 RBD mutant W436R; test: direct binding to RBD variant (FIG. 7B); format not described further
[5] = target: T2, SARS-CoV-2 RBD mutant N354D/D364Y; test: as above
[6] = target: T3, SARS-CoV-2 RBD mutant V367F; test: as above

B1: NIH-CoVnb-112 (VHH)
VHH: DVQLQESGGGLVQPGGSLRLSCAASGLTLDYYAIGWFRQAPGKEREGVSCISSSDGSTYYADSVKGRFTTSRDNAKNTVYLQMNSLKPEDTAVYYCAAVPSTYYSGTYYYTCHPGGMDYWGKGTQVTVSS
- EC50 [1]: ~0.02 µg/mL and ~1.11 nM
- EC50 [2]: ~1.11 nM and ~0.02 µg/mL
- EC50 [3]: ~0.02 µg/mL and ~1.11 nM
- EC50 [4]: ~0.01 µg/mL
- EC50 [5]: ~0.01 µg/mL
- EC50 [6]: ~0.01 µg/mL
